In US7049292 (dated 2006) one finds IC50 data, which are given here for four molecules.

For the experiment, the target named is HLA-DR4 (human). Briefly: competition.

On to QPLALEGSLQKRGIVEQ [preproinsulin C22-A5], for which the IC50 was 400 nM.

As for GSLQPLALEGSLQKRGIV [preproinsulin C19-A3], the half-inhibitory concentration (IC50) is 500 nM.

DLQVGQVELGGGPGAGSLQPLALE [preproinsulin C4-C27] displayed an IC50 of 33000 nM.

For the molecule GGGPGAGSLQPLALEGSLQK [preproinsulin C13-C32], the IC50 stood at 5000 nM.

Broadly, the IC50 is the concentration needed to halve the response being measured. A low value points to higher potency.
